Measured values: PMC8766921 (Molecular biotechnology, 2021)

Biological target: the molecule itself
Experiment: SDS-PAGE under reducing and non-reducing conditions

B1: BMP-4 growth factor (GF) from the B2/4 construct (BMP-2 pro-domain and BMP-4 GF sequence) (ligand, human, UniProt P12644 293-408, looked up)
chain: SPKHHSQRARKKNKNCRRHSLYVDFSDVGWNDWIVAPPGYQAFYCHGDCPFPLADHLNSTNHAIVQTLVNSVNSSIPKACCVPTELSAISMLYLDEYDKVVLKNYQEMVVEGCGCR
modifications: two N-linked glycans
**Q.** Which “stoichiometry N” value does the source give for B1 here?
**A.** 2
